# How the values were obtained:
# Experiment in all cases: filter binding
# Conditions in all cases: Nitrocellulose filter binding, 0.5 ml, 37 C, 30-60 min, then agarose gel. Topo IV: 40 mM Tris-HCl pH 7.5, 6 mM MgCl2, 100 mM KOAc, 1 mM DTT, 0.1 mM EDTA
# EcoRV = system: EcoRV
# RecQ (Escherichia coli) = system: RecQ (Escherichia coli)
# Tfam (human) = system: Tfam (human)
# [1] = system: Topo IV (ParC+ParE) (Escherichia coli)
# [2] = system: ntop1 Y723F (nuclear topoisomerase I) (human)
# [3] = system: top1mt Y559F (mitochondrial topoisomerase I) (human)
substance,measurement,setting,value
"pBR322, relaxed closed circular (dLk 0; dLk -1 as reference for Topo IV and Tfam)",binding signal (Ka ratio (reference dLk 0)),EcoRV,1
same,binding signal (Ka ratio (reference dLk 0)),RecQ (Escherichia coli),1
same,binding signal (Ka ratio (reference dLk -1)),Tfam (human),1
same,binding signal (Ka ratio (reference dLk -1)),[1],1
same,binding signal (Ka ratio (reference dLk 0)),[2],1
same,binding signal (Ka ratio (reference dLk 0)),[3],1
"pBR322, nicked (open circular)",binding signal (Ka nicked/Ka relaxed),"[2]; nick, position undefined",8.6
"pBR322, negatively supercoiled topoisomer dLk about -23 (unresolved band below -10)",binding signal (fold Ka vs relaxed),[1],5

# Reference: publication PMC4402506
